B1: 785-hIgG1 (chimeric PAL785) (antibody, V domains shown)
VH: EVQLQESGPELVKPGTSVKMSCKASGYTFTSYVMHWVKQRPGQGLEWIGYINPYNDGSKYNEKFKGKATLTSDTSSSTAYMELSSLTSEDSAVYYCAKQTLDFWGQGTSVTVST
VL: DIVLTQSPASLAVSLGQRATISCRASESVEFYGTTLMQWYQQKPGQPPKLLIYAASNVESGVPARFSGSGSGTDFSLNIHPVEEGDIGMYFCQQSRKVPYTFGGGTKLEIK
B2: PAL785 (hybridoma 16G1.A5) (antibody, V domains shown)
VH: EVQLQESGPELVKPGTSVKMSCKASGYTFTSYVMHWVKQRPGQGLEWIGYINPYNDGSKYNEKFKGKATLTSDTSSSTAYMELSSLTSEDSAVYYCAKQTLDFWGQGTSVTVST
VL: DIVLTQSPASLAVSLGQRATISCRASESVEFYGTTLMQWYQQKPGQPPKLLIYAASNVESGVPARFSGSGSGTDFSLNIHPVEEGDIGMYFCQQSRKVPYTFGGGTKLEIK
notes: Mouse IgG purified from hybridoma supernatant
B3: 788-hIgG1 (chimeric PAL788) (antibody, V domains shown)
VH: QVQLQQPGAELVKPGASVKLSCKASGYTFTSNWMNWVKQRPGRGLEWIGRIHPSDSETHYHQKFKSKATLTVDKSSSTAYIQLSSLTSEDSAVYYCAHSSGDYGRDYWGQGTTLTVSS
VL: NIVLTQSPASLAVSLGQRATISCRASESVDSYGNSFMHWYQQKPGQPPKLLIYLASNLQSGVPARFSGSGSRTDFTLTIDPVEADDAATYYCQQNNEDPWTFGGGTKLEIK
B4: PAL788(3E3) (hybridoma CKH-3E3) (antibody, V domains shown)
VH: QVQLQQPGAELVKPGASVKLSCKASGYTFTSNWMNWVKQRPGRGLEWIGRIHPSDSETHYHQKFKSKATLTVDKSSSTAYIQLSSLTSEDSAVYYCAHSSGDYGRDYWGQGTTLTVSS
VL: NIVLTQSPASLAVSLGQRATISCRASESVDSYGNSFMHWYQQKPGQPPKLLIYLASNLQSGVPARFSGSGSRTDFTLTIDPVEADDAATYYCQQNNEDPWTFGGGTKLEIK
notes: as for B2
B5: PAL759 (hybridoma 13F1.B7) (antibody, V domains shown)
VH: EVQLQESGAELVRPGASVKLSCKASGYSFTDYYINWVKQRPGQGLEWIARIYPGSGNTYYNEKFKGKATLTAEKSSITAYMQLSSLTSEDSAVYFCARSYYYGSSYLFDYWGQGTTLTVSS
VL: DILLTQSPAILSVSPGERVSFSCRASQSIGTSIHWYQQRTNGSPRLLIKYASESISGIPSRFSGSGSGTDFTLSINSVESEDIGDYYCQQSNNWPFTFGSGTKLEIK
notes: as for B2
B6: 771-hIgG1 (chimeric PAL771) (antibody, V domains shown)
VH: EVQLQESGAELVKPGASVKLSCTASGFNIKDTYMHWVKQRPEQGLEWIGRIDPANGNTKYDPKFPGKATITADTSSNTAYLQLSSLTSEDAAVYYCARPFNYRFYDVYYFDYWGQGTTLTVST
VL: QIVLTQSPAIMSASPGEKVTMTCSASSSVSYMYWYQQKPGSSPRLLIYDTSNLASGVPLRFSGSGSGTSYSLTLSRMEAEDAATYYCQQWSTYPLTFGAGTKLELK
B7: PAL769 (hybridoma 2C1.C8) (antibody, V domains shown)
VH: EVQLQESGAELVKPGASVTLSCTASGFNIKDTYMHWVKQRPEQGLEWIGRIDPANDNTKYDPKFQDKATITADTSSDTAYLRLSSLTSEDTAVYYCAREGYGGSYGEGYWGQGTTLTVSS
VL: SIVMTQTPKFLLVSAGDRVTITCKASQSVSNDVIWYQQKPGQSPKLLIYYASIRFTGVPDRFAGSGYGTDFTFTINTVQAEDLAVYFCQQDYNSPWTFGGGTKLEIK
notes: as for B2
B8: 752-hIgG1 (chimeric PAL752) (antibody, V domains shown)
VH: EVQLQESGAELARPGASVKLSCKASGHAFTSDSINWVKQRIGQGLEWIGEIYPRSGNPYYNEKFKGKATLTADKSSSTAYMELRSLTSEDSAVYFCATDYYGRYFDVWGTGTTVTVSS
VL: DIQMTQSSFSFSVSLGDRVTIICKASEDIYNRLAWYQQKPGNTPRLLISGATSLETGVPSRFSGSGSGKDYTLSITSLQTEDVATYYCQQYWSTPWTFGGGTKLEIK
B9: PAL752 (hybridoma 4G6.H4) (antibody, V domains shown)
VH: EVQLQESGAELARPGASVKLSCKASGHAFTSDSINWVKQRIGQGLEWIGEIYPRSGNPYYNEKFKGKATLTADKSSSTAYMELRSLTSEDSAVYFCATDYYGRYFDVWGTGTTVTVSS
VL: DIQMTQSSFSFSVSLGDRVTIICKASEDIYNRLAWYQQKPGNTPRLLISGATSLETGVPSRFSGSGSGKDYTLSITSLQTEDVATYYCQQYWSTPWTFGGGTKLEIK
notes: as for B2
B10: 767-hIgG1 (chimeric PAL767) (antibody, V domains shown)
VH: EVQLQESGPSLVKPSQTLSLTCSVTGDSITSGYWNWIRKFPGNKLEYMGYISYTGSTYYNPSLKRRISITRDTSKNQYYLQLNSVTTEDTATYYCASQGGWLQAMDYWGQGTSVTVSS
VL: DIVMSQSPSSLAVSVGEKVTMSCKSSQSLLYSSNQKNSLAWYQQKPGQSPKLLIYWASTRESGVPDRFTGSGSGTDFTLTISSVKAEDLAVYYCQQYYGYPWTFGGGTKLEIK
B11: PAL767 (hybridoma 1G7.A8) (antibody, V domains shown)
VH: EVQLQESGPSLVKPSQTLSLTCSVTGDSITSGYWNWIRKFPGNKLEYMGYISYTGSTYYNPSLKRRISITRDTSKNQYYLQLNSVTTEDTATYYCASQGGWLQAMDYWGQGTSVTVSS
VL: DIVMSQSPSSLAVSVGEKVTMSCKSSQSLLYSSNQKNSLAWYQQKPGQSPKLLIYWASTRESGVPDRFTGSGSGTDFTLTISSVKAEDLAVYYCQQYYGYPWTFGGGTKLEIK
notes: as for B2
B12: PAL787(3D10) (hybridoma CKH-3D10) (antibody, V domains shown)
VH: QVTLKESGPGILQPSQTLSLTCSFSGFSLSTYGLGVGWIRQPSGKGLEWLANIWWNDDKFYDSVLKSRLTISKDTSNNQVFLKISSVDTSETATYYCAQTLHYYDGIAWFAYWGQGTLVTVSA
VL: DIVMTQSQNFMSTSVGDRVSVTCKASHYVGTFVAWYQQKPGQSPKALIFSTSYRHTGVPDRFTGSGSGTDFTLTISNVQSEDLADYFCQQYYNSPLTFGAGTKLELK
notes: as for B2

Legend:
[1] = molecular target: T1, human PD-L1, his tagged (hPD-L1-his) (human, UniProt Q9NZQ7 19-238, limits assumed); experiment: BLI (ForteBio Octet), IgG on AHC sensor, hPD-L1-his analyte, 1:1 fit
T1 construct: also called huPD-L1-His; recombinant human PD-L1; not shown: his tag
Protocol: (§1) Characterization of chimeric anti-PD-L1 antibodies. ForteBio octet binding of purified chimeric antibodies and recombinant hPD-L1-his and cPD-L1-his was measured. Chimeric human antibodies were captured on AHC (Anti-human IgG-Capture) Biosensor, hPD-L1-his or cPD-L1-his analytes were titrated from 100 nM in a 2× series dilution. The buffer reference was subtracted from the signal and aligned to the baseline. KD, Kon and Koff values were generated using 1:1 fitting model as described above.

[2] = molecular target: T2, human PD-L1 expressed on cells (HCC827, NCI-H292, CHO-PD-L1, engineered CHO-K1) (human, UniProt Q9NZQ7 19-290); experiment: flow cytometry on NCI-H292 cells, apparent Kd
T2 construct: whole, on cells; Endogenous on the human lung lines HCC827 and NCI-H292; transfected on CHO cells; also called PD-L1 on HCC827; PD-L1 on NCI-H292
Protocol: (§2) FIG. 14 is a graph showing binding of chimeric PD-L1 antibodies to HCC827 (FIG. 14A) and NCI-H292 (FIG. 14B) lung epithelial cell lines. Binding was measured using a FACS analysis with a […] secondary antibody. MFI=mean fluorescence intensity.
(§3) Purified chimeric antibodies were evaluated for their ability to bind PD-L1 expressed on two human cancer cell lines. HCC827 and NCI-292 cells were incubated with titrated antibodies for 30 min at 4° C. Cells were washed and incubated with AF647-labeled goat anti-human IgG(H+L) for 30 min at 4° C. Cells were washed, fixed and analyzed on FACSCelesta.

[3] = molecular target: T3, cynomolgus PD-L1, his tagged (cPD-L1-his) (cynomolgus (Macaca fascicularis), UniProt G7PSE7 19-238); experiment: BLI (ForteBio Octet), IgG on AHC sensor, cPD-L1-his analyte, 1:1 fit
T3 construct: also called cyPD-L1-His; Cyno PD-L1
Protocol: as §1

[4] = molecular target: T2, human PD-L1 expressed on cells (HCC827, …); experiment: flow cytometry on HCC827 cells, apparent Kd
Protocol: as §2, §3

[5] = molecular target: T2, human PD-L1 expressed on cells (HCC827, …); experiment: flow cytometry MFI, CHO-PD-L1 cells (10 nM) against parental CHO cells (100 nM)
Protocol: CHO cells were incubated with 100 nM antibodies and CHO-PD-L1 cells (from Bioassay) with 10 nM antibodies for 30 min at 4° C. Cells were washed and incubated with goat anti-human IgG(H+L) for 30 in at 4° C. The washed cells were fixed and run on FACSCelesta.

[6] = molecular target: T2, human PD-L1 expressed on cells (HCC827, …); experiment: cell-based or functional assay
[7] = molecular target: T4, human PD-L1 Fc fusion (hPD-L1-Fc) (human, UniProt Q9NZQ7 19-238, limits assumed); experiment: blocking ELISA: antibody titrated + biotin-hPD-1-Fc on coated hPD-L1-Fc
T4 construct: not shown: Fc part
Description: (§4) The plate was developed with TMB and Stop buffer, the absorbance at 450 nm was read using SpectraMax plate reader. The A450 absorbance was normalized to the control that without antibody for the percentage values. The curve and IC₅₀ were generated using GraphPad Prism software.
Protein A purified chimeric antibodies were examined by size exclusion chromatography and quantified with a UV-Vis spectrophotometer (NanoDrop; mAU=milli absorbance units).

[8] = molecular target: T3, cynomolgus PD-L1, his tagged …; experiment: ELISA on cynomolgus PD-L1
[9] = molecular target: T1, human PD-L1, his tagged (hPD-L1-his); experiment: BLI (ForteBio Octet), mouse IgG on AMC sensor, hPD-L1-his analyte, 1:1 fit
Protocol: (§5) Screening of purified hybridoma antibodies. ForteBio octet binding of purified antibodies to recombinant hPD-L1-his and cPD-L1-his was measured. Mouse IgGs purified from hybridoma supernatant were captured on AMC (Anti-mouse IgG-Capture) Biosensor. hPD-L1-his or cPD-L1-his analytes were titrated from 100 nM in a 2× series dilution. The signal was subtracted with buffer reference and aligned to the baseline. KD, Kon and Koff values were generated using a 1:1 fitting model. […] The X-axes represent assay time in seconds, and the Y-axes represent binding signal on the biosensor. Each line represents the real time signal of antigen association and dissociation at the given antigen concentration in the assay (e.g., the top line represents the signal of the highest antigen concentration in the assay, the second top line represents the second highest concentration in the assay). The vertical dashed line represents the time point that the assay was moved from association step to the dissociation step. All the ForteBio/Octet assays were using standard/conventional settings and the graphs provided in the figures will be understood by one of skill in the art.

[10] = molecular target: T3, cynomolgus PD-L1, his tagged …; experiment: BLI (ForteBio Octet), mouse IgG on AMC sensor, cPD-L1-his analyte, 1:1 fit
Protocol: as §5

[11] = molecular target: T4, human PD-L1 Fc fusion (hPD-L1-Fc); experiment: blocking ELISA: antibody titrated + biotin-hPD-1-Fc 1 ug/mL on coated hPD-L1-Fc
Description: as §4

T2 sequence (Q9NZQ7 19-290, change not shown): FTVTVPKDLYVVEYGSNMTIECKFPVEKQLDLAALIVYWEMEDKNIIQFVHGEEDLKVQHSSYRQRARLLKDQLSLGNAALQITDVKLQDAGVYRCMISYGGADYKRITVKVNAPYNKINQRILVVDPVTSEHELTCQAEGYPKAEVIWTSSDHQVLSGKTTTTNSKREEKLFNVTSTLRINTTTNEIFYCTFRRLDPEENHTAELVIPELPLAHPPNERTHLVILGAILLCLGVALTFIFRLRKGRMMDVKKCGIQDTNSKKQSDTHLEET
T1 sequence (Q9NZQ7 19-238 limits assumed): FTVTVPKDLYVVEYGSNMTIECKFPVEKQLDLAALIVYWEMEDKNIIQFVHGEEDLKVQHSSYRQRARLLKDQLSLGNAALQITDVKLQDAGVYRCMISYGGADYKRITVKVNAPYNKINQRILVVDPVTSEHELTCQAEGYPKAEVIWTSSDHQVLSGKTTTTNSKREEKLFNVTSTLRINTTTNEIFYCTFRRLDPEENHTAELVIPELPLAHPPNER
T4 sequence (Q9NZQ7 19-238 limits assumed): as above
T3 sequence (G7PSE7 entry or part of it limits assumed, form in doubt): as the sequence (Q9NZQ7 19-238 limits assumed) above, with A33T, A34S, S62N, R68Q, Q82R, F173L, T185A, T192I, H215L counted along it

| Binder | Kd [1] [pM] | Kd [2] [pM] | Kd [3] [pM] | Kd [4] [pM] | Bind PD-L1-CHO/CHO [5] [x] | IC50, nM (Function) [6] [nM] | IC50 [7] [pM] | ELISA cyno, Fold over Bkg [8] [fold over background] | Kd [9] [pM] | Kd [10] [pM] | IC50 [11] [pM] |
| --- | --- | --- | --- | --- | --- | --- | --- | --- | --- | --- | --- |
| B1 | 1640 | 190 | 724 | 290 | > 100 | 0.5 | 1900 | – | – | – | – |
| B2 | – | – | – | – | – | – | – | 4.98 | 1020 | 642 | 680 |
| B3 | 43 | 1680 | 867 | 1570 | > 100 | 0.9 | 2900 | – | – | – | – |
| B4 | – | – | – | – | – | – | – | 24.8 | 188 | 392 | 890 |
| B5 | – | – | – | – | – | – | – | 13.1 | 1140 | – | 4640 |
| B6 | 1430 | 1170 | 1120 | 1020 | – | 1 | – | – | – | – | – |
| B7 | – | – | – | – | – | – | – | 39.5 | 758 | 1300 | 510 |
| B8 | 1180 | 4980 | 3180 | 3630 | – | 1.5 | 4600 | – | – | – | – |
| B9 | – | – | – | – | – | – | – | 18.4 | 789 | 4030 | 2530 |
| B10 | 52.2 | 230 | 266 | 260 | > 100 | 0.6 | 2000 | – | – | – | – |
| B11 | – | – | – | – | – | – | – | 36.9 | 803 | 57.7 | 810 |
| B12 | – | – | – | – | – | – | – | 38.2 | 277 | 283 | 4070 |
